Assay results from US20110262454A1 (published 2011).
Where a chain is given by its changes, count along the chain named.

B1: ch38SB31 chimeric anti-CD38 antibody (antibody, V domains shown)
VH: DVKLVESGGGLVKPGGSLKLSCEASGFTFSSYTLSWVRQTPETRLEWVATISIGGRYTYYPDSVEGRFTISRDNAKNTLYLQMNSLKSEDTAMYYCTRDFNGYSDFWGQGTTLTVSS
VL: DTVMTQSHKFISTSVGDRVSITCKASQVVGSAVAWYQQKPGQSPKLLIYWASTRHTGVPDRFTGSGSGTDFTLTISNVQSEDLADYFCQQYNSYPYTFGGGTKLEIKR
notes: also called chimeric 38SB31
B2: 38SB31 murine anti-CD38 monoclonal antibody (antibody, V domains shown)
VH: B1 VH
VL: B1 VL
notes: Murine hybridoma antibody; also called hybridoma PTA-7668
B3: ch38SB39 chimeric anti-CD38 antibody (antibody, V domains shown)
VH: NVQLVESGGGLVQPGGSRKLSCAASGFTFSNFGMHWVRQAPEKGLEWVAYIRSGSGTIYYSDTVKGRFTISRDNPKNTLFLQMTSLRSEDTAMYYCARSYYDFGAWFAYWGQGTLVTVSA
VL: DIVMTQSQKFMSTSVGDRVSVTCKASQNVGTNVAWYQHKPGQSPKIMIYSASSRYSGVPDRFTGSGSGTLFTLTINNVQSEDLAEYFCQQYNSYPLTFGSGTKLEIKR
B4: 38SB39 murine anti-CD38 monoclonal antibody (antibody, V domains shown)
VH: B3 VH
VL: B3 VL
notes: Murine hybridoma antibody; also called hybridoma PTA-7671
B5: ch38SB30 chimeric anti-CD38 antibody (antibody, V domains shown)
VH: QVQLQQSGPELVRPGASVKISCKTSGYAFSGSWMNWVKQRPGQGLEWIGRIYPGDGDIIYNGNFRDKVTLSADKSSNTAYMQLSSLTSVDSAVYFCSRWGTFTPSFDYWGQGTTLTVSS
VL: DIVMTQSHKFLSTSVGDRVSITCKASQDVVTAVAWFQQKPGQSPKLLIYSASHRYTGVPDRFTGSGSGTDFTFTIISVQAEDLAVYYCQQHYTTPTTFGGGTKLDFRR
B6: 38SB30 murine anti-CD38 monoclonal antibody (antibody, V domains shown)
VH: B5 VH
VL: B5 VL
notes: Murine hybridoma antibody; also called hybridoma PTA-7666
B7: ch38SB13 chimeric anti-CD38 antibody (antibody, V domains shown)
VH: QIQLVQSGPELKKPGETVKISCKASGYTLTSYGMNWVKQAPGKGLKWMGWINTYTGEPTYADDFKGRFAFSLETSASTAFLQINNLKNEDTATYFCVRRGFAYWGQGTLVTVSA
VL: NIVLTQSPASLAVSLGQRATISCRASESVEIYGNGFMNWFQQKPGQPPKLLIYRASNLESGIPARFSGSGSRTEFTLTIDPVEADDVATYYCQQINEDPFTFGSGTKLEIKR
B8: 38SB18 murine anti-CD38 monoclonal antibody (antibody, V domains shown)
VH: B7 VH with L29F, S31N, Y32S, T78S, F80Y, N84S, V97A, A102V
VL: B7 VL with N1D, E30A, G35S, M37L, N38K, R72G, E74D, D80N, F100Y, S104G
notes: Murine hybridoma antibody; also called hybridoma PTA-7669
B9: ch38SB18 chimeric anti-CD38 antibody (antibody, V domains shown)
VH: B7 VH with L29F, S31N, Y32S, T78S, F80Y, N84S, V97A, A102V
VL: B7 VL with N1D, E30A, G35S, M37L, N38K, R72G, E74D, D80N, F100Y, S104G
B10: 38SB13 murine anti-CD38 monoclonal antibody (antibody, V domains shown)
VH: B7 VH
VL: B7 VL
notes: Murine hybridoma antibody purified by Protein A or G; also called hybridoma PTA-7667
B11: ch38SB19 chimeric anti-CD38 antibody (antibody, V domains shown)
VH: QVQLQQSGAELARPGTSVKLSCKASGYTFTDYWMQWVKQRPGQGLEWIGTIYPGDGDTGYAQKFKGKATLTADKSSKTVYMHLSSLASEDSAVYYCARGDYYGSNSLDYWGQGTSVTVSS
VL: DIVMAQSHKFMSTSVGDRVSITCKASQDVSTVVAWYQQKPGQSPKRLIYSASYRYIGVPDRFTGSGSGTDFTFTISSVQAEDLAVYYCQQHYSPPYTFGGGTKLEIKR
notes: also called chimeric 38SB19
B12: 38SB19 murine anti-CD38 monoclonal antibody (antibody, V domains shown)
VH: B11 VH
VL: B11 VL
notes: also called mu38SB19; murine 38SB19
B13: hu38SB31 v1.2 humanized anti-CD38 antibody (antibody, V domains shown)
VH: B1 VH with D1E, K3Q, K19R, E42G, T43K, R44G, E65K
VL: B1 VL with H8P, K9S, F10S, V15I, D60A
B14: hu38SB31 v1.1 humanized anti-CD38 antibody (antibody, V domains shown)
VH: B1 VH with D1E, K3Q, K19R, E42G, T43K, R44G, E65K
VL: B1 VL with H8P, K9S, F10T, E81D

Target: T1, human CD38 on cells (human, UniProt P28907 1-300)
Test: cell-based or functional assay

Question: What does the source list for B1?
Answer: ADCC EC50, LP-1 multiple myeloma cells: 0.24 ng/mL; ADCC EC50, Ramos target cells, human NK effector cells, LDH release: 1.2 ng/mL; CDC EC50, LP-1 multiple myeloma cells: 0.043 µg/mL; CDC EC50, Raji-IMG cells, human complement 5%: 0.01 µg/mL; CDC, specific viability of Daudi cells at 1.25 µg/mL or higher with complement: 53%

Question: For B2, which “apoptosis, Annexin V-positive Daudi cells after 24 h with 10 nM antibody” value (from here on “apoptosis … with 10 nM antibody”) is on record?
Answer: > 30%

Question: What about the “apoptosis, Annexin V-positive MOLP-8 cells” value of the same binder?
Answer: ~50%

Question: And the “apoptosis, Annexin V-positive Ramos cells after subtraction of the non-treated control” value (from here on “apoptosis … of the non-treated control”)?
Answer: ≥ 7%

Question: What does the source list for B3?
Answer: ADCC EC50, Ramos target cells, human NK effector cells, LDH release: 113 ng/mL; CDC EC50, Raji-IMG cells, human complement 5%: 0.4 µg/mL; CDC, specific viability of Daudi cells at 1.25 µg/mL or higher with complement: 91%

Question: Which “apoptosis … with 10 nM antibody” value does the source give for B4 here?
Answer: > 30%

Question: What about the “apoptosis, Annexin V-positive MOLP-8 cells” value of the same binder?
Answer: ~50%

Question: What about the “apoptosis … of the non-treated control” value of the same binder?
Answer: ≥ 7%

Question: For B5, which “ADCC EC50, Ramos target cells, human NK effector cells, LDH release” value (shortened to “ADCC EC50, Ramos target cells”) is on record?
Answer: 2.2 ng/mL

Question: And the “CDC EC50, Raji-IMG cells, human complement 5%” value (shortened to “CDC EC50 … human complement 5%”)?
Answer: 0.02 µg/mL

Question: What about the “CDC, specific viability of Daudi cells at 1.25 µg/mL or higher with complement” value of the same binder?
Answer: 45%

Question: With B6 as the binder, how does the “apoptosis … with 10 nM antibody” value read?
Answer: > 30%

Question: What about the “apoptosis, Annexin V-positive MOLP-8 cells” value of the same binder?
Answer: ~50%

Question: What about the “apoptosis … of the non-treated control” value of the same binder?
Answer: ≥ 7%

Question: Which results are given for B7?
Answer: ADCC EC50, Ramos target cells, human NK effector cells, LDH release: 1.3 ng/mL; CDC EC50, Raji-IMG cells, human complement 5%: 0.005 µg/mL; CDC, specific viability of Daudi cells at 1.25 µg/mL or higher with complement: 65%

Question: For B8, which “apoptosis … with 10 nM antibody” value is on record?
Answer: > 30%

Question: What about the “apoptosis, Annexin V-positive MOLP-8 cells” value of the same binder?
Answer: ~50%

Question: What about the “apoptosis … of the non-treated control” value of the same binder?
Answer: ≥ 7%

Question: How did the “ADCC EC50, LP-1 multiple myeloma cells” value turn out when B9 was run?
Answer: 0.56 ng/mL

Question: And the “ADCC EC50, Ramos target cells” value?
Answer: 1.3 ng/mL

Question: And the “CDC EC50, LP-1 multiple myeloma cells” value?
Answer: 0.032 µg/mL

Question: And the “CDC EC50 … human complement 5%” value?
Answer: 0.0101 µg/mL

Question: What about the “CDC, specific viability of Daudi cells at 1.25 µg/mL or higher with complement” value of the same binder?
Answer: 85%

Question: With B10 as the binder, how does the “apoptosis … with 10 nM antibody” value read?
Answer: > 30%

Question: And the “apoptosis, Annexin V-positive MOLP-8 cells” value?
Answer: ~50%

Question: What about the “apoptosis … of the non-treated control” value of the same binder?
Answer: ≥ 7%

Question: How did the “ADCC EC50, LP-1 multiple myeloma cells” value turn out when B11 was run?
Answer: 0.34 ng/mL

Question: What about the “ADCC EC50, Ramos target cells” value of the same binder?
Answer: 1.8 ng/mL

Question: What about the “CDC EC50, LP-1 multiple myeloma cells” value of the same binder?
Answer: 0.03 µg/mL

Question: What about the “CDC EC50 … human complement 5%” value of the same binder?
Answer: 0.028 µg/mL

Question: What does the source list for B12?
Answer: apoptosis, Annexin V-positive Daudi cells after 24 h with 10 nM antibody: > 30%; apoptosis, Annexin V-positive MOLP-8 cells: ~50%; apoptosis, Annexin V-positive Ramos cells after subtraction of the non-treated control: ≥ 7%

Target: T1, human CD38 on cells
Test: FACS binding on Ramos cells

Question: For B1, which Kd is on record?
Answer: 0.12 nM

Question: Which Kd does the source give for B13 here?
Answer: 0.11 nM

Question: Which Kd does the source give for B14 here?
Answer: 0.13 nM

Target: T1, human CD38 on cells
Test: FACS binding titration on Ramos cells

Question: Which Kd does the source give for B11 here?
Answer: 0.18 nM

Target: T1, human CD38 on cells
Test: apparent KD, FACS titration on Ramos cells, non-linear regression

Question: How did the Kd turn out when B2 was run?
Answer: 0.11 nM

Question: With B4 as the binder, how does the Kd read?
Answer: 3.03 nM

Question: For B6, which Kd is on record?
Answer: 0.16 nM

Question: Which Kd does the source give for B8 here?
Answer: 0.1 nM

Question: Which Kd does the source give for B10 here?
Answer: 0.1 nM

Question: How did the Kd turn out when B12 was run?
Answer: 0.12 nM
